Results taken from paper PMC5764400, “Biophysical insights from a single chain camelid antibody directed against the Disrupted-in-Schizophrenia 1 protein” (PLoS ONE, 2018).

B1: human DISC1 fragment comprising residues 691-836 (C region) (domain or fragment, UniProt Q9NRI5 691-836, looked up)
chain: WEADLEACRLLIQSLQLQEARGSLSVEDERQMDDLEGAAPPIPPRLHSEDKRKTPLKVLEEWKTHLIPSLHCAGGEQKEESYILSAELGEKCEDIGKKLLYLEDQLHTAIHSHDEDLIQSLRRELQMVKETLQAMILQLQPAKEAG
notes: also called DISC1 C region; source: E. coli BL21 AI (pESPRIT002), purified (Ni2+-NTA, SEC); not shown: His tag, N-terminal, kept
B2: anti-DISC1 VHH B5 antibody (VHH)
VHH: QVKLEESGGGLVQAGGSLRLSCAASGTLFSISVMGWYRQAPGMQRELVGSITDGGSTIYGDSVKGRFAISKDNAKRTIYLQMNSLKPEDTAVYYCNYRRLTSNYWGQGTQVTVSS
notes: Selected by phage display from an immunised llama; the homology model holds residues 1-120; PDB 3EZJ chain B is only the template of the homology model, not this VHH; also called clone B5; VHH domain B5; source: E. coli BL21 Rosetta (pET-22b, periplasm), purified (Ni2+-NTA, SEC)
B3: human DISC1 fragment 480-721 (domain or fragment, UniProt Q9NRI5 480-721, looked up)
chain: EAKDQQLRREIEEQEQQLQWQGCDLTPLVGQLSLGQLQEVSKALQDTLASAGQIPFHAEPPETIRSLQERIKSLNLSLKEITTKVCMSEKFCSTLRKKVNDIETQLPALLEAKMHAISGNHFWTAKDLTEEIRSLTSEREGLEGLLSKLLVLSSRNVKKLGSVKEDYNRLRREVEHQETAYETSVKENTMKYMETLKNKLCSCKCPLLGKVWEADLEACRLLIQSLQLQEARGSLSVEDERQ
notes: Disrupted-in-Schizophrenia 1 (DISC1), human, UniProtKB Q9NRI5, residues 480-721; same vector as m3; also called DISC1^480-721; source: E. coli BL21 AI (pESPRIT002), purified (Ni2+-NTA, SEC)
B4: human DISC1 fragment 598-715 (domain or fragment, UniProt Q9NRI5 598-715, looked up)
chain: GNHFWTAKDLTEEIRSLTSEREGLEGLLSKLLVLSSRNVKKLGSVKEDYNRLRREVEHQETAYETSVKENTMKYMETLKNKLCSCKCPLLGKVWEADLEACRLLIQSLQLQEARGSLS
notes: same vector as m3; source: E. coli BL21 AI (pESPRIT002), purified (Ni2+-NTA, SEC)
B5: full length human DISC1 (natural protein, UniProt Q9NRI5 1-854, looked up)
chain: MPGGGPQGAPAAAGGGGVSHRAGSRDCLPPAACFRRRRLARRPGYMRSSTGPGIGFLSPAVGTLFRFPGGVSGEESHHSESRARQCGLDSRGLLVRSPVSKSAAAPTVTSVRGTSAHFGIQLRGGTRLPDRLSWPCGPGSAGWQQEFAAMDSSETLDASWEAACSDGARRVRAAGSLPSAELSSNSCSPGCGPEVPPTPPGSHSAFTSSFSFIRLSLGSAGERGEAEGCPPSREAESHCQSPQEMGAKAASLDGPHEDPRCLSRPFSLLATRVSADLAQAARNSSRPERDMHSLPDMDPGSSSSLDPSLAGCGGDGSSGSGDAHSWDTLLRKWEPVLRDCLLRNRRQMEVISLRLKLQKLQEDAVENDDYDKAETLQQRLEDLEQEKISLHFQLPSRQPALSSFLGHLAAQVQAALRRGATQQASGDDTHTPLRMEPRLLEPTAQDSLHVSITRRDWLLQEKQQLQKEIEALQARMFVLEAKDQQLRREIEEQEQQLQWQGCDLTPLVGQLSLGQLQEVSKALQDTLASAGQIPFHAEPPETIRSLQERIKSLNLSLKEITTKVCMSEKFCSTLRKKVNDIETQLPALLEAKMHAISGNHFWTAKDLTEEIRSLTSEREGLEGLLSKLLVLSSRNVKKLGSVKEDYNRLRREVEHQETAYETSVKENTMKYMETLKNKLCSCKCPLLGKVWEADLEACRLLIQSLQLQEARGSLSVEDERQMDDLEGAAPPIPPRLHSEDKRKTPLKVLEEWKTHLIPSLHCAGGEQKEESYILSAELGEKCEDIGKKLLYLEDQLHTAIHSHDEDLIQSLRRELQMVKETLQAMILQLQPAKEAGEREAAASCMTAGVHEAQA
notes: Disrupted-in-Schizophrenia 1 (DISC1), human, UniProtKB Q9NRI5; source: NLF human neuroblastoma cells, transfected, in lysate

Experiments:
[1] = target: T1, anti-DISC1 human Fc-VHH antibody (VHH B5 fused to human Fc) (Lama glama); experiment: far-Western, overlay or dot blot; western blot of purified His-tagged DISC1 truncation constructs probed with the VHH-Fc (conditioned medium) and an anti-human secondary antibody; details: one partner purified
T1 construct: as the VHH of m1; also called VHH-Fc; VHH–Fc antibody; not shown: Fc (human), C-terminal, kept

[2] = target: B1; experiment: SPR; Biacore T200, 25°C, PBS/0.05% Tween-20 pH 7.4; DISC1^691-836 amine-coupled to a CM5 chip (250 RU); VHH B5 19 nM to 1.5 uM injected in a single cycle; response levels against concentration fitted with Langmuir 1:1 model; details: both partners purified
[3] = target: B1; experiment: SEC + SPR; stoichiometry of the DISC1^691-836 - VHH B5 complex as supported by the SEC and SPR results; details: both partners purified
[4] = target: T1, anti-DISC1 human Fc-VHH antibody (VHH …); experiment: far-Western, overlay or dot blot; western blot of lysates of NLF neuroblastoma cells transfected with human DISC1 or mouse Disc1, probed with the VHH-Fc (conditioned medium); details: partners not purified

Binder	binding result [1]	other results
B1	binds	
B2		Kd [2]: 139 nM; stoichiometry N [3]: 1
B3	binds	
B4	binds	
B5		binding result [4]: binds
